Results from patent US20060160174A1, “Modified l49-sfv exhibiting increased stability and methods of use thereof” (priority 2002, published 2006).
Substitutions are numbered along the chain they refer to. Names may count otherwise.

T1: Recombinant p97 (Homo sapiens, UniProt P08582)
T1 construct: Soluble p97 (amino acids 20-710 of human p97 precursor); 6xHis; made in house
T1 sequence (P08582 20-710): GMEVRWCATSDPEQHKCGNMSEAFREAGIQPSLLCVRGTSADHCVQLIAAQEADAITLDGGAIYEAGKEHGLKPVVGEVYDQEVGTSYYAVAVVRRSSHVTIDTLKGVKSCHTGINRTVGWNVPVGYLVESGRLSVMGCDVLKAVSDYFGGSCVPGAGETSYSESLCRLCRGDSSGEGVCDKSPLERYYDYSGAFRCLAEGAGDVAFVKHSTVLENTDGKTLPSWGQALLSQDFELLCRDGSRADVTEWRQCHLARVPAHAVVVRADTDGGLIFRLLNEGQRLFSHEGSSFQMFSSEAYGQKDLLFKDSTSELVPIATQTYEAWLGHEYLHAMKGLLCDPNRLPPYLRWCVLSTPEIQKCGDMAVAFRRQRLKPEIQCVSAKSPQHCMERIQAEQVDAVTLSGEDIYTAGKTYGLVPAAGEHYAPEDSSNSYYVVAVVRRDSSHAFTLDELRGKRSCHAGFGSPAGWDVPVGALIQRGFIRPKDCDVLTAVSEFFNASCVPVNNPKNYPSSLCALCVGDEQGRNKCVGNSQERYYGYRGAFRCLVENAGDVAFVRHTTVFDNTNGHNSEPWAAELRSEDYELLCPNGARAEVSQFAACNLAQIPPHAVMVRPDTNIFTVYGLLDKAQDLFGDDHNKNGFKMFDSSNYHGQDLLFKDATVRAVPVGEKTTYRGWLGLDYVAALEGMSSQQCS

T2: purified p97 antigen (Homo sapiens, UniProt P08582)
T2 construct: Soluble p97 (amino acids 20-710 of human p97 precursor); 6xHis; made in house
T2 sequence (P08582 20-710): T1 sequence (P08582 20-710)

T3: soluble p97 (amino acids 20-710 of human p97 precursor) (Homo sapiens, UniProt P08582)
T3 construct: Soluble p97 (amino acids 20-710 of human p97 precursor); 6xHis; made in house
T3 sequence (P08582 20-710): T1 sequence (P08582 20-710)

B1: FP999: triple mutant K H39 Q, F H82B S, N H91 Y in reverse bL-L49-sFv orientation (β-lactamase at amino terminus) (protein)
chain: TPVSEKQLAEVVANTITPLMKAQSVPGMAVAVIYQGKPHYYTFGKADIAANKPVTPQTLFELGSISKTFTGVLGGDAIARGEISLDDAVTRYWPQLTGKQWQGIRMLDLATYTAGGLPLQVPDEVTDNASLLRFYQNWQPQWKPGTTRLYANASIGLFGALAVKPSGMPYEQAMTTRVLKPLKLDHTWINVPKAEEAHYAWGYRDGKAVRVSPGMLDAQAYGVKTNVQDMANWVMANMAPENVADASLKQGIALAQSRYWRIGSMYQGLGWEMLNWPVEANTVVETSFGNVALAPLPVAEVNPPAPPVKASWVHKTGSTGGFGSYVAFIPEKQIGIVMLANTSYPNPARVEAAYHILEALQMHGTKLMEVQLQESGPSLVKPSQTLSLTCSVTGDSITSGYWNWIRQFPGNKLEYMGYISDSGITYYNPSLKSRISITRDTSKNQYYLQLNSVTAEDTATYYCARRTLATYYAMDYWGQGTSVTVSSGSTSGSGKPGSGEGSTKGDFVMTQTPLSLPVSLGDQASISCRASQSLVHSNGNTYLHWYLQKPGQSPKLLIYRVSNRFSGVPDRFSGSGSGTDFTLKISRVEAEDLGVYFCSQSTHVPPTFGGGTKLEIKR
B2: FP930: L49-sFv-bL with mutation K H39 Q (protein)
scFv: MEVQLQESGPSLVKPSQTLSLTCSVTGDSITSGYWNWIRQFPGNKLEYMGYISDSGITYYNPSLKSRISITRDTSKNQYYLQLNFVTAEDTATYNCARRTLATYYAMDYWGQGTSVTVSSGSTSGSGKPGSGEGSTKGDFVMTQTPLSLPVSLGDQASISCRASQSLVHSNGNTYLHWYLQKPGQSPKLLIYRVSNRFSGVPDRFSGSGSGTDFTLKISRVEAEDLGVYFCSQSTHVPPTFGGGTKLEIKRTPVSEKQLAEVVANTITPLMKAQSVPGMAVAVIYQGKPHYYTFGKADIAANKPVTPQTLFELGSISKTFTGVLGGDAIARGEISLDDAVTRYWPQLTGKQWQGIRMLDLATYTAGGLPLQVPDEVTDNASLLRFYQNWQPQWKPGTTRLYANASIGLFGALAVKPSGMPYEQAMTTRVLKPLKLDHTWINVPKAEEAHYAWGYRDGKAVRVSPGMLDAQAYGVKTNVQDMANWVMANMAPENVADASLKQGIALAQSRYWRIGSMYQGLGWEMLNWPVEANTVVETSFGNVALAPLPVAEVNPPAPPVKASWVHKTGSTGGFGSYVAFIPEKQIGIVMLANTSYPNPARVEAAYHILEALQ
B3: FP960: L49-sFv-bL double mutant F H82B S, N H91 Y (protein)
scFv: B2 scFv with Q40K, F85S, N95Y
B4: FP950: L49-sFv-bL with mutation N H91 Y (protein)
scFv: B2 scFv with Q40K, N95Y
B5: FP990: L49-sFv-bL triple mutant K H39 Q, F H82B S, N H91 Y (protein)
scFv: B2 scFv with F85S, N95Y
B6: FP945: L49-sFv-bL with mutation F H82B S (protein)
scFv: B2 scFv with Q40K, F85S
B7: FP95: parental (wt) L49-sFv-bL fusion protein refolded from E. coli inclusion bodies (protein)
scFv: B2 scFv with Q40K
B8: FP965: L49-sFv-bL double mutant K H39 Q, N H91 Y (protein)
scFv: B2 scFv with N95Y

Columns and labels:
[1] = system: H3677 human melanoma xenografts; details: fusion protein 1 mg/kg i.v. followed 24 h later by C-Mel 100 mg/kg, q7dx3
Recombinant p97 = biological target: T1, Recombinant p97; assay: binding affinity by surface plasmon resonance (Biacore 2000); details: 25° C., immobilized p97, 1:1 model, error in last digit in parentheses
Method: The buffer used in the study was PBS, 0.005% P20, 0.2 mg/mi BSA. Antigen was immobilized on one flow cell surface of a CM5 sensor chip and the others were left blank to serve as reference surfaces. For each scFv, triplicates of 0, 0.5, 2.8, 8.3, 25, 75 and 225 nM were injected across the immobilized antigen. The association and dissociation phases were monitored for 1 and 20 minutes, respectively. The antigen surface was regenerated with four 18-second pulses of 2.5 mM NaOH between injections.
The binding affinities of double mutants FP960 and FP965 and triple mutants FP990 and FP999 were compared to the parental molecule by surface plasmon resonance. Recombinant p97 was immobilized on a BIACore CM5 sensor chip and varying concentrations of each scFv fusion protein were injected across the chip in triplicate.

purified p97 antigen = biological target: T2, purified p97 antigen; assay: size exclusion chromatography (SEC) binding assay, 2:1 p97 antigen to L49-sFv-bL; details: purified protein after ion exchange
From the text: Double mutants FP960 and FP965 and triple mutant FP990 all show improved refolding activity in crude lysates compared to the parental molecule, and therefore, all three mutant molecules were selected for further analysis. Proteins were expressed at the 1L scale in shake flasks as described in Materials and Methods, supra. Inclusion bodies (IBs) were obtained at a typical yield of 25% (±10%) wet IB mass/wet cell mass. Renatured L49-sFv-bL was purified by aminophenylboronate chromatography, dialyzed into 10 mM Na2PO4 and loaded onto Macro-prep HS resin. Fusion proteins were eluted in a stepwise fashion employing 250 mM NaCl. […] Mutants FP965 and FP990 were greater than 95% monomeric as shown by SEC-HPLC. However, FP960 contained only 55% monomer after cation exchange purification, possibly indicating a key role for the lysine residue at position H39 in refolding. The parental molecule, FP95, was present as 2 bands following aminophenylboronate chromatography. After ion-exchange chromatography only the upper of these 2 bands was eluted. A size exclusion chromatography (SEC) binding assay was developed in which a 2:1 ratio of purified p97 antigen to purified L49-sFv-bL was mixed and analyzed by HPLC-SEC (data not shown).

[2] = biological target: T3, soluble p97 (amino acids 20-710 of human p97 precursor); assay: solid-phase p97 binding assay of crude refolded fusion proteins (refolding efficiency); details: crude refolds normalized on β-lactamase activity
Method: For small scale expression BL21([DE3) (Novagen) were transformed with parental and mutant constructs and single colonies was used to inoculate 100 ml Terrific Broth II (TB) (QBIOGENE). Cells were induced at an OD of 1.0 with 1 mM IPTG (Sigma). Cells were harvested following overnight incubation and inclusion bodies were purified from the cell extracts using B-Per (Novagen) according to the manufacturers instructions. Inclusion body pellets were resuspended in 8 M urea, 2 mM DTT, 50 mM Tris.Cl pH 8.0 at a concentration of 50 mg/ml. Inclusion bodies were refolded overnight in a 50-fold dilution of 2 M urea, 0.3 M L-arginine, 50 mM Tris.Cl pH 8.0, 1 mM reduced glutathione, 0.1 mM oxidized glutathione. Protein was then dialyzed into PBS and fusion protein concentration was determined by measuring β-lactamase activity using colorimetric substrate nitrocefin.
Soluble p97 (amino acids 20-710 of human p97 precursor) was cloned into pSecTag2 (Invitrogen), incorporating an Ig Kappa leader sequence and a 6× his tag, and transfected into CHO cells. Stable transformants were selected and secreted protein was purified from conditioned medium on a metal chelate affinity column. Assays were performed by coating polystyrene 96-well plates with 2 μg/ml soluble p97 in PBS overnight. The plates were blocked by adding 1% bovine serum albumin in PBS for 1 hour at room temperature. Plates were emptied and fresh blocking reagent containing serial dilutions of L49-sFv-bL samples was added. Following 1 hour at room temperature the plates were washed and developed with 0.1 ml of colorimetric β-lactamase substrate nitrocefin solution at 0.1 mM in PBS containing 1% DMSO. Absorbance measurements were read in an ELISA plate reader using a 490 nm filter with 610 m as the reference wavelength.
The unusual residues in the L49 scFv framework were mutated to the most frequently occurring residue for that position in the Kabat database (Chowdhury et al., 1998, J. Mol. Biol. 281, 917-928). […] Binding to p97 was then determined using a solid-phase binding assay as described in Section 6.1.3, supra.

| Molecule | tumor response [1] | ka (Recombinant p97) | kd (Recombinant p97) | antigen binding in SEC assay (purified p97 antigen) | antigen binding of refolded mutant compared to parental L49-sFv-bL (FP95) [2] |
| --- | --- | --- | --- | --- | --- |
| B1 | significant tumor regression | 3.373(3) × 10^5 M^−1 s^−1 | 5.755(7) × 10^−4 s^−1 | bound completely to antigen |  |
| B2 |  |  |  |  | significant increases in antigen binding |
| B3 |  | 3.640(4) × 10^5 M^−1 s^−1 | 6.383(7) × 10^−4 s^−1 |  |  |
| B4 |  |  |  |  | significant increases in antigen binding |
| B5 | significant tumor regression | 4.476(1) × 10^5 M^−1 s^−1 | 7.819(3) × 10^−4 s^−1 |  |  |
| B6 |  |  |  |  | significant increases in antigen binding |
| B7 |  | 3.038(2) × 10^5 M^−1 s^−1 | 7.004(5) × 10^−4 s^−1 | bound antigen completely |  |
| B8 |  | 4.000(6) × 10^5 M^−1 s^−1 | 7.65(1) × 10^−4 s^−1 |  |  |
